The test system of the experiment is Tex-loxP-EG cells. Kind of experiment: Protein transduction: delivery of Cre recombinase read out by GFP expression. As to conditions: 5 or 10 µM protein, 3 h, GFP measured 48 h after, FACS, three independent experiments. It is filed as cell-based, mouse. The protocol: To determine the protein-transduction activity of VPTLK and KLPVM, these peptides were added to the N-terminus of Cre DNA recombinase and the resulting CPP5-Cre fusion proteins were added separately to the culture medium of Tex-loxP-EG cells, which are engineered to express GFP through Cre-dependent excision of a chromosomal lox P site. This method was developed by S. Dowdy’s group to determine the protein-transduction activity of TAT peptide.
First, cells were cultured for 3 h in serum-free medium in the presence of 5 or 10 µM Cre, TAT-Cre, KLPVM-Cre, or VPTLK-Cre. GFP expression was measured 48 h after the incubation with the CPP-Cre proteins. […]
Figure 5 Protein-Transduction activity (PTDs) of VPTLK and KLPVM determined by the delivery of Cre recombinase into cells. a. […] The delivery of Cre into Tex-lox P-EG cells was evaluated by GFP expression as previously reported. GFP expression was analyzed 48 h after the incubation of cells with Cre proteins. b and c. […] Mean GFP fluorescence intensity of Tex-loxP-EG cells incubated with 5 or 10 μM Cre recombinant proteins under serum-free conditions. […]
Tex lox P EG cells were established from thymoma cells of p53-deficient mice, which were genetically engineered to have a lox P site flanking the EGFP gene. […] Expression of GFP was analyzed by fluorescence microscopy and by FACS [11].

B1: Cre: His-tagged recombinant Cre DNA recombinase without TAT or CPP5s (protein, UniProt P06956 1-343, looked up)
Recombinase cre: MSNLLTVHQNLPALPVDATSDEVRKNLMDMFRDRQAFSEHTWKMLLSVCRSWAAWCKLNNRKWFPAEPEDVRDYLLYLQARGLAVKTIQQHLGQLNMLHRRSGLPRPSDSNAVSLVMRRIRKENVDAGERAKQALAFERTDFDQVRSLMENSDRCQDIRNLAFLGIAYNTLLRIAEIARIRVKDISRTDGGRMLIHIGRTKTLVSTAGVEKALSLGVTKLVERWISVSGVADDPNNYLFCRVRKNGVAAPSATSQLSTRALEGIFEATHRLIYGAKDDSGQRYLAWSGHSARVGAARDMARAGVSIPEIMQAGGWTNVNIVMNYIRNLDSETGAMVRLLEDGD
modifications: His tag
notes: His-tagged recombinant Cre DNA recombinase without TAT or CPP5s
With B1, the “GFP expression induced by Cre protein, serum-free medium” value was “did not”.

For the origin of these results see publication PMC3045100, “Cell-Penetrating Penta-Peptides (CPP5s): Measurement of Cell Entry and Protein-Transduction Activity” (Pharmaceuticals, 2010).
